Experimental data from patent publication US7262177B2, “Conjugates of glycosylated/galactosylated peptide, bifunctional linker, and nucleotidic monomers/polymers, and related compositions and methods of use” (priority 2000, dated 2007).

Test: Hepatic and systemic toxicity, 4 weekly bolus injections
Format: in vivo, CD-1 mice
Experimental: Mice have previously been used as in vivo models for 5FU drug testing in the following manner (Ain et al., J. Surg. Res., 57, 366-372 (1994); Wang et al., Cancer Res., 50, 869s-872s (1990)). The plasma profiles, induced toxicities and pharmacokinetics of 5FU in mice are similar to those observed in humans (Wagner et al., Cancer Res., 46, 1499-1506 (1986)). Both po 1-mer and 5FdU were administered on a clinically relevant regimen of 4 weekly bolus injections via the tail vein (Anfield et al., Cancer, 39, 34-40 (1977)). The starting doses of 10 mg/kg and 15 mg/kg were determined by extrapolation of the in vitro data. One week after each injection, a cohort of animals (6 animals/dose/treatment) was sacrificed. Blood and liver samples were collected from each animal and assayed for hepatic and systemic toxicities. The blood sample analyses included a Superchem panel and a total blood count. The Superchem panel assayed blood levels of glucose, urea nitrogen (BUN), creatinine, total protein, albumin, both conjugated and unconjugated bilirubin, triglycerides, SGOT, SGPT, triglycerides, CPK, alkaline phosphatase, and peripheral blood differentials. Total blood counts were analyzed for hematocrit, as well as both red and white blood cell counts. Liver samples were subjected to histological analysis in order to determine changes in morphology, architecture and increase in necrotic tissue as compared to the controls. Any acute or sustained increases in blood counts or serum components indicative of organ damage in comparison with the untreated control was taken to be indicative of a toxic response. In addition, the weights of each cohort were recorded throughout the treatment period as an indication of their clinical condition.

[1] = 10 mg/kg weekly, WEEK 6 (treatment stopped for two weeks)

CC(=O)N[C@H]1[C@H](OCCCCCCNC(=O)CC[C@H](NC(=O)CC[C@H](NC(=O)[C@H](Cc2ccc(O)cc2)NC(=O)C2CCC(CN3C(=O)CC(SCCCCCCOP(=O)(O)OC[C@H]4O[C@@H](n5cc(F)c(=O)[nH]c5=O)C[C@@H]4O)C3=O)CC2)C(=O)NCCCCCCO[C@@H]2O[C@H](CO)[C@H](O)[C@H](O)[C@H]2NC(C)=O)C(=O)NCCCCCCO[C@@H]2O[C@H](CO)[C@H](O)[C@H](O)[C@H]2NC(C)=O)O[C@H](CO)[C@H](O)[C@@H]1O (stereo partly drawn) [po 1-mer, YEE(ahGalNAc)3-SMCC-poFU]
histological analysis of liver (10 mg/kg weekly): mild hepatocellular swelling
increased total bilirubin and gamma-glutamyl transferase (GT) levels (10 mg/kg weekly): not observed
lactate dehydrogenase levels (10 mg/kg weekly): increased
BUN (10 mg/kg weekly, WEEK 1): 24.66 mg/dL
Calcium (10 mg/kg weekly, WEEK 1): 7.56 mg/dL
Chloride (10 mg/kg weekly, WEEK 1): 106.33 meq/l
MCH (10 mg/kg weekly, WEEK 1): 17.2 pg
MCV (10 mg/kg weekly, WEEK 1): 51.5 fL
Potassium (10 mg/kg weekly, WEEK 1): 11.63 meq/l
SGOT (10 mg/kg weekly, WEEK 1): 335.5 u/l
SGPT (10 mg/kg weekly, WEEK 1): 46.5 u/l
Sodium (10 mg/kg weekly, WEEK 1): 155.6 meq/l
WBC (10 mg/kg weekly, WEEK 1): 4.86 thds/cmm
BUN (10 mg/kg weekly, WEEK 2): 18 mg/dL
Calcium (10 mg/kg weekly, WEEK 2): 7.75 mg/dL
Chloride (10 mg/kg weekly, WEEK 2): 95 meq/l
MCH (10 mg/kg weekly, WEEK 2): 15.6 pg
MCV (10 mg/kg weekly, WEEK 2): 51 fL
Potassium (10 mg/kg weekly, WEEK 2): 11.1 meq/l
SGOT (10 mg/kg weekly, WEEK 2): 911.33 u/l
SGPT (10 mg/kg weekly, WEEK 2): 110 u/l
Sodium (10 mg/kg weekly, WEEK 2): 142.5 meq/l
WBC (10 mg/kg weekly, WEEK 2): 3.16 thds/cmm
BUN (10 mg/kg weekly, WEEK 3): 22 mg/dL
Calcium (10 mg/kg weekly, WEEK 3): 8.85 mg/dL
Chloride (10 mg/kg weekly, WEEK 3): 87.5 meq/l
MCH (10 mg/kg weekly, WEEK 3): 16.56 pg
MCV (10 mg/kg weekly, WEEK 3): 56 fL
Potassium (10 mg/kg weekly, WEEK 3): 8.9 meq/l
SGOT (10 mg/kg weekly, WEEK 3): 1174 u/l
SGPT (10 mg/kg weekly, WEEK 3): 177 u/l
Sodium (10 mg/kg weekly, WEEK 3): 152.5 meq/l
WBC (10 mg/kg weekly, WEEK 3): 2.8 thds/cmm
BUN (10 mg/kg weekly, WEEK 4): 21.33 mg/dL
Calcium (10 mg/kg weekly, WEEK 4): 6.5 mg/dL
Chloride (10 mg/kg weekly, WEEK 4): 86.66 meq/l
MCH (10 mg/kg weekly, WEEK 4): 16.42 pg
MCV (10 mg/kg weekly, WEEK 4): 52.83 fL
Potassium (10 mg/kg weekly, WEEK 4): 12.46 meq/l
SGOT (10 mg/kg weekly, WEEK 4): 1549.5 u/l
SGPT (10 mg/kg weekly, WEEK 4): 125.66 u/l
Sodium (10 mg/kg weekly, WEEK 4): 161.6 meq/l
WBC (10 mg/kg weekly, WEEK 4): 1.83 thds/cmm
BUN [1]: 22.44 mg/dL
Calcium [1]: 7.7 mg/dL
Chloride [1]: 89.72 meq/l
MCH [1]: 16.1 pg
MCV [1]: 51.18 fL
Potassium [1]: 10.82 meq/l
SGOT [1]: 1211.61 u/l
SGPT [1]: 137.55 u/l
Sodium [1]: 162.22 meq/l
WBC [1]: 3.03 thds/cmm
weight gain (10 mg/kg weekly, four week period): progressive and similar to the saline-treated control mice
complete blood count: platelets (15 mg/kg weekly): mild thrombocytopenia
histological analysis of liver (15 mg/kg weekly): mild hepatocellular swelling and limited subcapsular fibrosis in one mouse
increased total bilirubin and gamma-GT levels (15 mg/kg weekly): not observed
lactate dehydrogenase levels (15 mg/kg weekly): increased
weight gain (15 mg/kg weekly): somewhat less than the untreated control mice
BUN (15 mg/kg weekly, WEEK 1): 26 mg/dL
Calcium (15 mg/kg weekly, WEEK 1): 9.15 mg/dL
Chloride (15 mg/kg weekly, WEEK 1): 101.33 meq/l
MCH (15 mg/kg weekly, WEEK 1): 16.83 pg
MCV (15 mg/kg weekly, WEEK 1): 50 fL
Potassium (15 mg/kg weekly, WEEK 1): 8.9 meq/l
SGOT (15 mg/kg weekly, WEEK 1): 730 u/l
SGPT (15 mg/kg weekly, WEEK 1): 67.5 u/l
Sodium (15 mg/kg weekly, WEEK 1): 154.5 meq/l
WBC (15 mg/kg weekly, WEEK 1): 2 thds/cmm
BUN (15 mg/kg weekly, WEEK 3): 22 mg/dL
Calcium (15 mg/kg weekly, WEEK 3): 7.73 mg/dL
Chloride (15 mg/kg weekly, WEEK 3): 87.5 meq/l
MCH (15 mg/kg weekly, WEEK 3): 16.56 pg
MCV (15 mg/kg weekly, WEEK 3): 56.556 fL
Potassium (15 mg/kg weekly, WEEK 3): 8.7 meq/l
SGOT (15 mg/kg weekly, WEEK 3): 1194 u/l
SGPT (15 mg/kg weekly, WEEK 3): 120.3 u/l
Sodium (15 mg/kg weekly, WEEK 3): 156.5 meq/l
WBC (15 mg/kg weekly, WEEK 3): 2.1 thds/cmm
BUN (15 mg/kg weekly, WEEK 4): 20.33 mg/dL
Calcium (15 mg/kg weekly, WEEK 4): 6.7 mg/dL
Chloride (15 mg/kg weekly, WEEK 4): 81.66 meq/l
MCH (15 mg/kg weekly, WEEK 4): 14.2 pg
MCV (15 mg/kg weekly, WEEK 4): 51 fL
Potassium (15 mg/kg weekly, WEEK 4): 13.46 meq/l
SGOT (15 mg/kg weekly, WEEK 4): 1669.5 u/l
SGPT (15 mg/kg weekly, WEEK 4): 123.66 u/l
Sodium (15 mg/kg weekly, WEEK 4): 165.6 meq/l
WBC (15 mg/kg weekly, WEEK 4): 1.85 thds/cmm
overall toxicity (10 and 15 mg/kg weekly): mild at best
